Test results from US20240252641A1 (TCR2 THERAPEUTICS, published 2024).

T1: CD70 on cells (CHO-CD70, JVM-3, U266, Raji, THP-1, T cells) (human, UniProt P32970 1-193)
T1 construct: whole, on cells; also called cell-surface CD70
T1 sequence (looked up): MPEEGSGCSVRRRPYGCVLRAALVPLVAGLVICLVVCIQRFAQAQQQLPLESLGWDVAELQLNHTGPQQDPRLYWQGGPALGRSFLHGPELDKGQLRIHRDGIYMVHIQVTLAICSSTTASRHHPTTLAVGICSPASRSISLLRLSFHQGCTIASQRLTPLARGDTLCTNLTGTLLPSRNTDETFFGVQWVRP

T2: human CD70, recombinant, N-terminally biotinylated (residues 39-193) (human, UniProt P32970 39-193, N-terminal biotin)
T2 construct: range 39-193; the same entry is used there; also called biotinylated human CD70; CD70 biotin
T2 sequence (looked up): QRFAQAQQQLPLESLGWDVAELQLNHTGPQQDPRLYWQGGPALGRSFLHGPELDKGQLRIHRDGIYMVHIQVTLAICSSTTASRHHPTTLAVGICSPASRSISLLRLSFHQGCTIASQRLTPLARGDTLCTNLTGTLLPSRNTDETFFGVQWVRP


What was measured:
[1] = target: T1, CD70 on cells (CHO-CD70, JVM-3, U266, …); test: 1.25 µg/mL scFv on JVM-3 cells
Method in brief: (§1)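 Panning of a naïve human library against the CD70 extracellular domain (aa39-193) yielded human scFv antibodies. Binding to high-CD70 (CHO-CD70, JVM3, U266) and low-CD70 (CHO WT, K562) tumour cell lines was recorded line by line.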

[2] = target: T2, human CD70, recombinant, N-terminally …; test: CD27 blocking ELISA, 3 µM scFv, strep/HRP
[3] = target: T2, human CD70, recombinant, N-terminally …; test: SPR
Method in brief: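 Surface plasmon resonance (SPR) was used to determine the affinity (Kd) of human scFv antibodies for recombinant, N-terminally biotinylated human antigen. These antibodies were selected from a naïve human library panned against the CD70 extracellular domain, spanning aa39-193.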

[4] = target: T2, human CD70, recombinant, N-terminally …; test: CD27 blocking ELISA, 3 µM scFv, anti-His/HRP; note: unit not given here
Method: Human scFv antibodies binding CD70 were generated by panning a naïve human library with the extracellular domain (aa39-193) of CD70. 53 antibodies were identified. The ability of CD27 to block CD70 binding of the identified antibodies was measured by ELISA using two different assays. In the first assay, CD27 and his-tagged scFv anti-CD70 binders were simultaneously added to surface bound CD70, and the ability of the scFv binders to bind CD70 was detected with anti-His HRP. In the second assay, plate-bound CD70 was pre-incubated with CD27 for 30 minutes, and then additional CD27 and the his-tagged scFv anti-CD70 binder was added. The ability of the scFv binders to bind CD70 was detected with anti-His HRP. FIG. 34 is a schematic of the two different CD27 blocking assays. CD70 affinity was also measured by SPR analysis. scFv antibodies were also tested for their ability to bind tumor cell lines with high (CHO-CD70, JVM3, and U266) and low levels (CHO WT and K562 of CD70 expression. Results for 39 antibodies are shown in Table 1 below.

[5] = target: T1, CD70 on cells (CHO-CD70, JVM-3, U266, …); test: 1.25 µg/mL scFv on U266 cells
Method in brief: as §1

[6] = target: T1, CD70 on cells (CHO-CD70, JVM-3, U266, …); test: 1.25 µg/mL scFv on CHO-CD70 cells
Method in brief: as §1

| Binder | cell binding [1] | strep/HRP [2] | Kd [3] | anti His/HRP [4] | cell binding [5] | cell binding [6] |
| --- | --- | --- | --- | --- | --- | --- |
| 39-TC6-IV-B08 (scFv, His-tagged; also called 1885) scFv: QVQLVESGGGVVQPGGSLRLSCAASGFTFSSYAMHWVRQAPGKGLEWVAVISYDGSNKYYADSVKGRFTISRDNSKNTLYLQMNSLRAEDTAVYYCARDGHPYYYGMDVWGQGTTVTVSSGGSGGSGGSGGSQSALTQPASVSGSPGQSITISCTGTSSDVGDYNYVSWYQHHPGKAPKLMIYDVSNRPSGVSNRFSGSKSGNTASLTISGLQAEDEADYYCGSYTGSDTWVFGGGTKVTVL | 25300 | 0.268 | 2890 nM | 2.97 | 35900 | 52200 |
| 16-TC4-I-C11 (scFv, His-tagged) scFv: QVQLVQSGAEVKKPGSSVKVSCKASGGTFSSYAISWVRQAPGQGLEWMGWISAYNGNTNYAQKLQGRVTMTTDTSTSTAYMELRSLRSDDTAVYYCARVTPPGWLGNMDVWGKGTTVTVSSGGSGGSGGSGGSSYELMQSPSVSVAPGQTARITCGGRDIGSKSVHWYQQKPGQAPVLVVYDDSDRPSGIPERLSGSNFGNEATLTISRVEAGDEGDYFCQVWDSSTDVVFGGGTKVTVL | 103000 | 1.43 | 40.2 nM | 2.1 | 51000 | 660000 |
| 60-TC7-VII-C02 (scFv, His-tagged) scFv: QVQLQQWGAGLLKPSETLSLTCAVYGGSFSGYYWSWIRQPPGKGLEWIGEINHSGSTNYNPSLKSRVTISVDTSKNQFSLKLSSVTAADTAVYYCARSPLWFGPPDAFDIWGQGTMVTVSSGGSGGSGGSGGSQSALTQPPSASGSPGQSVSISCTGTSSDVGGYNYVSWYQQHPGKAPKLIIYDVDKRPSGIPERFSGSNSGNTATLTISGTQAMDEADYYCQAWDSSTEVVFGGGTKVTVL | 10800 | 1.58 | 135 nM | 1.27 | 5040 | 458000 |
| 37-TC7-VII-D05 (scFv, His-tagged) scFv: QMQLVQSGGGVVQPGRSLRLSCAASGFTFSSYAMHWVRQAPGKGLEWVAVISYDGSNKYYADSVKGRFTISRDNSKNTLYLQMNSLRAEDTAVYYCARDALWDTATFDYWGQGTLVTVSSGGSGGSGGSGGSSSELTQDPAVSVALGQTVRITCQGDSLRSYYASWYQQKPGQAPVLVIYGKNNRPSGIPDRFSGSSSGNTASLTITGAQAEDEADYYCNSRDSSGNPWVFGGGTKLTVL | 11000 | 0.655 | 5640 nM | 2.28 | 15900 | 111000 |
| 13-TC7-V-H10 (scFv, His-tagged) scFv: QVQLQQWGAGLLKPSETLSLTCAVYGGSFSGYYWSWIRQPPGKGLEWIGEINHSGSTNYNPSLKSRVTISVDTSKNQFSLKLSSVTAADTAVYYCARSRRPYWYFDLWGRGTLVTVSSGGSGGSGGSGGSQSALTQPASVSGSPGQSITISCTGTSSDVGGYNSVSWYRQHPGKAPKLMIYDVTNRPSGVSNRFSGSKSGNTASLTISGLQAEDEADYYCSSSSISATWVFGGGTKLTVL | 87500 | 1.38 | 66.9 nM | 1.97 | 34300 | 601000 |
| 53-TC7-VI-B06 (scFv, His-tagged) scFv: EVQLLESGGGVVQPGRSLRLSCAASGFTFSSYGMHWVRQAPGKGLEWVAVISYDGSNKYYADSVKGRFTISRDNSKNTLYLQMNSLRAEDTAVYYCAKGELELTNWGQGTLVTVSSGGSGGSGGSGGSSYELTQPPSVSVAPGQTARITCGGNNIGSKSVHWYQQKSGQAPVLVVYDDTDRPSGTPERFSGSNSGNTATLTISGTQAMDEADYYCQAWDSSTAVFGTGTKVTVL | 1830 | 1.44 | 235 nM | 1.38 | 1170 | 12200 |
| 47-TC7-III-D10 (scFv, His-tagged) scFv: QVQLVQSGAEVKKPGASVKVSCKASGYTFTSYGISWVRQAPGQGLEWMGWISAYNGNTNYAQKLQGRVTMTTDTSTSTAYMELRSLRSDDTAVYYCARDSSSWYYYYGMDVWGQGTTVTVSSGGSGGSGGSGGSSYELTQPPSVSVSPGQTARISCSGDALPNQYAYWYQQKPGQAPVLVIYQDSERPSGIPERFSGSSSGTTVTLTISGVQAEDEADYYCQSADTYGTSWVFGGGTKLTVL | 34700 | 1.55 | 18.6 nM | 1.5 | 19000 | 313000 |
| 32-TC1.2-I-F07-6 (scFv, His-tagged) scFv: QVQLVQSGAEVKKPGESLKISCKGSGYSFTSYWIGWVRQMPGKGLEWMGIIYPGESDTRYSPSFQGQVTISADKSISTAYLQWSSLKASDTAMYYCARRNYYDRSGYVDAFDIWGQGTMVTVSSGGSGGSGGSGGSSSELTQDPAVSVALGQTVRITCQGDSLRRFYASWHQQKPGQAPIVVMYAENNRPSGIPDRFSGSSSGNTASLTITGAQAEDEATYYCNSRDSSGNRHVFGTGTKLTVL | 57300 | 0.113 | 7.41 nM | 2.42 | 20700 | 553000 |
| 4-TC4-I-G08 (scFv, His-tagged) scFv: QVQLVQSGGGVVQPGRSLRLSCAASGFTFSSYAMHWVRQAPGKGLEWVAVISYDGSNKYYADSVKGRFTISRDNAKNSLYLQMNSLRDEDTAVYYCARDESFDYGVDVWGKGTTVTVSSGGSGGSGGSGGSSSELTQDPAVSVALGQTVRITCQGDSLRSYYASWYQQKPGQAPVLVIYGKNNRPSGIPDRFSGSSSGNTASLTITGAQAEDEADYYCNSRDSSGNHLVVFGGGTKLTVL | 34000 | 1.03 | 1410 nM | 2.29 | 23500 | 387000 |
| 42-TC4-VII-G08 (scFv, His-tagged) scFv: QVQLVQSGGGVVQPGRSLRLSCAASGFTFSSYAMHWVRQAPGKGLEWVAVISYDGSNKYYADSVKGRFTISRDNSKNTLYLQMNSLRAEDTAVYYCARDLSYDYGFDYWGQGTLVTVSSGGSGGSGGSGGSSSELTQDPAVSVALGQTVRITCQGDSLRSYYASWYQQKPGQAPVLVIYGKNNRPSGIPDRFSGSSSGNTASLTITGAQAEDEADYYCNSRDSSGNHLVVFGGGTKVTVL | 33900 | 1.11 | 179 nM | 2.34 | 13100 | 364000 |
| 49-TC4-XVI-F01 (scFv, His-tagged) scFv: QVQLVESGGGVVQPGRSLRLSCAASGFTFSSYAMHWVRQAPGKGLEWVAVISYDGSNKYYADSVKGRFTISRDNSKNTLYLQMNSLRAEDTAVYYCARDSTQDYGMDVWGQGTMVTVSSGGSGGSGGSGGSSSELTQDPAVSVALGQTVRITCQGDSLRNYYASWYQQKPGQAPVLVFYGKNNRPSGIPDRFSGSSSGNTASLTITGAQAEDEADYYCNSRDSSGNHLVVFGGGTKLTVL | 5410 | 1.29 | 1060 nM | 2.12 | 2980 | 134000 |
| 50-TC7-III-A11 (scFv, His-tagged; also called 1985) scFv: QVQLVQSGAEVKRPGASVKVSCKASGYTFTSYYMHWVRQAPGQGLEWMGIINPSGGSTSYAQKFQGRVTMTRDTSTSTVYMELSSLRSEDTAVYYCAIEPGYCSGGSCYPDAFDIWGQGTTVTVSSGGSGGSGGSGGSQSVLTQPPSASGTPGQRVTISCSGSSSNIGSDYVYWYQRVPGTAPKLLIYRDNQRPSGVPDRFSGSKSGTSASLAISGLRSDDEADYYCAAWDDSLSGWVFGGGTKVTVL | 12200 | 0.868 | 4190 nM | 2.25 | 45000 | 122000 |
